Source: patent publication US20240209084A1 (CYTOARM, published 2024)

Experiments:
CD19 [1] = target: T1, CD19 (human, UniProt P15391 20-556); test: flow cytometry on Raji cells (CD19+), FITC goat anti-human IgG Fab
T1 construct: whole, on cells; also called CD19^+ B cell lymphoma (Raji)
T1 sequence (looked up): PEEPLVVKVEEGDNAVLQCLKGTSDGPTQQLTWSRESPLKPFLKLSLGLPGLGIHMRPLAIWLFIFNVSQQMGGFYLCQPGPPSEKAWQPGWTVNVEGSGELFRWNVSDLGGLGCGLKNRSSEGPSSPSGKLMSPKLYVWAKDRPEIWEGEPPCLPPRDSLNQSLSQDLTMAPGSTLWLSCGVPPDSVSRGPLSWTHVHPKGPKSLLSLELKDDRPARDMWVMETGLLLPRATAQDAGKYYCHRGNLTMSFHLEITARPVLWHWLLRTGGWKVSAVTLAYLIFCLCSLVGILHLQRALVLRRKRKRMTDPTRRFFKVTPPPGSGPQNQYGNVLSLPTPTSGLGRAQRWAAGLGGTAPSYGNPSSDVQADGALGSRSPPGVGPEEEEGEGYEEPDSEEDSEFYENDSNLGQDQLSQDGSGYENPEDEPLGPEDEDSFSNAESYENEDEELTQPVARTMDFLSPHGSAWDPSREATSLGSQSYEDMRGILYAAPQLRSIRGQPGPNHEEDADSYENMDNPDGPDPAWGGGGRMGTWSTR

PSMA = target: T2, PSMA (human, UniProt Q04609 1-750); test: flow cytometry on LNCaP cells (PSMA+), FITC goat anti-human IgG Fab
T2 construct: whole, on cells; also called prostate-specific membrane antigen; PSMA^+ Prostate cancer (LNCaP)

EpCAM = target: T3, EpCAM (human, UniProt P16422 24-314); test: flow cytometry on LNCaP cells (EpCAM+), FITC goat anti-human IgG Fab
T3 construct: whole, on cells; also called epithelial cell adhesion molecule; EpCAM^+ prostate cancer (LNCaP)
T3 sequence (looked up): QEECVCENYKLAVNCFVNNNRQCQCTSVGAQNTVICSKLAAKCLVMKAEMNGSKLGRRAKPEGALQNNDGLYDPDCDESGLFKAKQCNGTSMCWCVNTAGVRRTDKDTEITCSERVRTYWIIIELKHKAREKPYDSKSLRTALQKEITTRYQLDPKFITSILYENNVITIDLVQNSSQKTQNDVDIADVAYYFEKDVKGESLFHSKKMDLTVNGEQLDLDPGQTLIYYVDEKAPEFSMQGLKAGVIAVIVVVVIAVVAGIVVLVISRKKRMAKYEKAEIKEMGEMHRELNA

CD19 [2] = target: T1, CD19; test: flow cytometry titration on Raji cells (CD19+), FITC goat anti-human IgG Fab
CD3 = target: T4, CD3 (human, UniProt P07766 23-207); test: flow cytometry titration on Jurkat cells (CD3+), FITC goat anti-human IgG Fab
T4 construct: whole, on cells; CD3 is a multi-chain complex; also called CD3 on CD3-positive T cells; CD3^+ T cells (Jurkat)
T4 sequence (P07766 23-207): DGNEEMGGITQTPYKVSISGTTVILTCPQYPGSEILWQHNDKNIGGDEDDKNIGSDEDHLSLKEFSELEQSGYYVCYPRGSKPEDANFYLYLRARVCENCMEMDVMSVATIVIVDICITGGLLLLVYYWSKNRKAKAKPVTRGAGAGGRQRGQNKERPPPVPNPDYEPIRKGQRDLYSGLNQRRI

T2 sequence (Q04609 whole entry): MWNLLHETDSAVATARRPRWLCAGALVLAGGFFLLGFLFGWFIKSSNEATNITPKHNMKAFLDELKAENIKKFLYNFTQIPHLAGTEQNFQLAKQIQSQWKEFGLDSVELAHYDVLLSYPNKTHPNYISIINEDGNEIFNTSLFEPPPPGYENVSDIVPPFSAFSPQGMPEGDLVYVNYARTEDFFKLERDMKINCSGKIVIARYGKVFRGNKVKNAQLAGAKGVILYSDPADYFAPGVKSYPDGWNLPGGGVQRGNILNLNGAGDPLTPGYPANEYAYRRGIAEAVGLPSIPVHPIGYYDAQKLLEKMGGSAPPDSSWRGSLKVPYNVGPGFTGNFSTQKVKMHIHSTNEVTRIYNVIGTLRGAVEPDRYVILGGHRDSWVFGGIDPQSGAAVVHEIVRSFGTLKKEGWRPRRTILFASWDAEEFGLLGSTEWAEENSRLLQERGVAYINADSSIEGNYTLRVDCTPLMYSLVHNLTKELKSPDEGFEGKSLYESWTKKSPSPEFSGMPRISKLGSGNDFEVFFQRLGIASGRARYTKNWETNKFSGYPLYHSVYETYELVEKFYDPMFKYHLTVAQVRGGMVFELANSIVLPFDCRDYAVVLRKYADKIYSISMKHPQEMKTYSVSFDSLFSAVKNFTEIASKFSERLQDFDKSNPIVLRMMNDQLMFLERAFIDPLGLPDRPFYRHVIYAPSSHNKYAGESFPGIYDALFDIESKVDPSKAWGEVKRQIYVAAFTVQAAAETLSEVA

B1: CTA03Fab/CTAT02scFv (bispecific antibody)
heavy: EVQLLESGGGLVQPGGSLRLSCAASGFTFSSFPMAWVRQAPGKGLEWVSTISTSGGRTYYRDSVKGRFTISRDNSKNTLYLQMNSLRAEDTAVYYCAKFRQYSGGFDYWGQGTLVTVSSASTKGPSVFPLAPSSKSTSGGTAALGCLVKDYFPEPVTVSWNSGALTSGVHTFPAVLQSSGLYSLSSVVTVPSSSLGTQTYICNVNHKPSNTKVDKKVEPKSCGGGSGGGEVKLQESGPGLVAPSQSLSVTCTVSGVSLPDYGVSWIRQPPRKGLEWLGVIWGSETTYYNSALKSRLTIIKDNSKSQVFLKMNSLQTDDTAIYYCAKHYYYGGSYAMDYWGQGTSVTVSSGGGGSGGGGSGGGGSDIQMTQTTSSLSASLGDRVTISCRASQDISKYLNWYQQKPDGTVKLLIYHTSRLHSGVPSRFSGSGSGTDYSLTISNLEQEDIATYFCQQGNTLPYTFGGGTKLEIT
light: DIQLTQPNSVSTSLGSTVKLSCTLSSGNIENNYVHWYQLYEGRSPTTMIYDDDKRPDGVPDRFSGSIDRSSNSAFLTIHNVAIEDEAIYFCHSYVSSFNVFGGGTKLTVLRQPKAAPSVTLFPPSSEELQANKATLVCLISDFYPGAVTVAWKADSSPVKAGVETTTPSKQSNNKYAASSYLSLTPEQWKSHRSYSCQVTHEGSTVEKTVAPTECS
notes: also called anti-CD3Fab/anti-CD19scFv; parent CTA03Fab/CTAT02scFv BsAb
B1: binds (CD19 [1]).

B2: CTA03Fab/CTAT05scFv (bispecific antibody)
heavy: EVQLLESGGGLVQPGGSLRLSCAASGFTFSSFPMAWVRQAPGKGLEWVSTISTSGGRTYYRDSVKGRFTISRDNSKNTLYLQMNSLRAEDTAVYYCAKFRQYSGGFDYWGQGTLVTVSSASTKGPSVFPLAPSSKSTSGGTAALGCLVKDYFPEPVTVSWNSGALTSGVHTFPAVLQSSGLYSLSSVVTVPSSSLGTQTYICNVNHKPSNTKVDKKVEPKSCGGGSGGGEVQLVQSGAEVKKPGASVKISCKTSGYTFTEYTIHWVKQASGKGLEWIGNINPNNGGTTYNQKFEDRATLTVDKSTSTAYMELSSLRSEDTAVYYCAAGWNFDYWGQGTTVTVSSGGGGSGGGGSGGGGSDIVMTQSPSSLSASVGDRVTITCKASQDVGTAVDWYQQKPGKAPKLLIYWASTRHTGVPDRFTGSGSGTDFTLTISSLQPEDFADYFCQQYNSYPLTFGGGTKLEIK
light: DIQLTQPNSVSTSLGSTVKLSCTLSSGNIENNYVHWYQLYEGRSPTTMIYDDDKRPDGVPDRFSGSIDRSSNSAFLTIHNVAIEDEAIYFCHSYVSSFNVFGGGTKLTVLRQPKAAPSVTLFPPSSEELQANKATLVCLISDFYPGAVTVAWKADSSPVKAGVETTTPSKQSNNKYAASSYLSLTPEQWKSHRSYSCQVTHEGSTVEKTVAPTECS
notes: also called antiCD3Fab/anti-PSMAscFv
B2: binds (PSMA).

B3: CTA03Fab/CTAT07scFv (bispecific antibody)
heavy: EVQLLESGGGLVQPGGSLRLSCAASGFTFSSFPMAWVRQAPGKGLEWVSTISTSGGRTYYRDSVKGRFTISRDNSKNTLYLQMNSLRAEDTAVYYCAKFRQYSGGFDYWGQGTLVTVSSASTKGPSVFPLAPSSKSTSGGTAALGCLVKDYFPEPVTVSWNSGALTSGVHTFPAVLQSSGLYSLSSVVTVPSSSLGTQTYICNVNHKPSNTKVDKKVEPKSCGGGSGGGEVQLVQSGPGLVQPGGSVRISCAASGYTFTNYGMNWVKQAPGKGLEWMGWINTYTGESTYADSFKGRFTFSLDTSASAAYLQINSLRAEDTAVYYCARFAIKGDYWGQGTLLTVSSGGGGSGGGGSGGGGSDIQMTQSPSSLSASVGDRVTITCRSTKSLLHSNGITYLYWYQQKPGKAPKLLIYQMSNLASGVPSRFSSSGSGTDFTLTISSLQPEDFATYYCAQNLEIPRTFGQGTKVELK
light: DIQLTQPNSVSTSLGSTVKLSCTLSSGNIENNYVHWYQLYEGRSPTTMIYDDDKRPDGVPDRFSGSIDRSSNSAFLTIHNVAIEDEAIYFCHSYVSSFNVFGGGTKLTVLRQPKAAPSVTLFPPSSEELQANKATLVCLISDFYPGAVTVAWKADSSPVKAGVETTTPSKQSNNKYAASSYLSLTPEQWKSHRSYSCQVTHEGSTVEKTVAPTECS
notes: also called antiCD3Fab/anti-EpCAMscFv
B3: binds (EpCAM).

B4: CTA03-01Fab/CTAT02-02scFv (bispecific antibody)
heavy: EVQLLESGGGLVQPGGSLRLSCAASGFTFSSFPMAWVRQAPGKGLEWVSTISTSGGRTYYRDSVKGRFTISRDNSKNTLYLQMNSLRAEDTAVYYCAKFRQYSGGFDYWGQGTLVTVSSASTKGPSVFPLAPSSKSTSGGTAALGCLVKDYFPEPVTVSWNSGALTSGVHTFPAVLQSSGLYSLSSVVTVPSSSLGTQTYICNVNHKPSNTKVDKKVEPKSCGGGSGGGEVKLQESGPGLVAPSQSLSVTCTVSGVSLPDYGVSWIRQPPRKGLEWLGVIWGSETTYYNSALKSRLTIIKDNSKSQVFLKMNSLQTDDTAIYYCAKHYYYGGSYAMDYWGQGTSVTVSSGGGGSGGGGSGGGGSDIQMTQTTSSLSASLGDRVTISCRASQDISKYLNWYQQKPEGTVKLLIYHTSRLHSGVPSRFSGSGSGTDYSLTISNLEQEDIATYFCQQGNTLPYTFGGGTKLEIT
light: DIQLTQPNSVSTSLGSTVKLSCTLSSGNIENNYVHWYQLYEGRSPTTMIYDDDKRPDAVPDRFSGSIDRSSNSAFLTIHNVAIEDEAIYFCHSYVSSFNVFGGGTKLTVLRQPKAAPSVTLFPPSSEELQANKATLVCLISDFYPGAVTVAWKADSSPVKAGVETTTPSKQSNNKYAASSYLSLTPEQWKSHRSYSCQVTHEGSTVEKTVAPTECS
notes: also called CTA03Fab(VLG58A)/CTAT02scFv(VLD41E)
B4 was tested, and the “EC50 (read off the curve)” value (CD19 [2]) was ~1 µg/mL.

B5: CTA03-01Fab/CTAT02-01scFv (bispecific antibody)
heavy: EVQLLESGGGLVQPGGSLRLSCAASGFTFSSFPMAWVRQAPGKGLEWVSTISTSGGRTYYRDSVKGRFTISRDNSKNTLYLQMNSLRAEDTAVYYCAKFRQYSGGFDYWGQGTLVTVSSASTKGPSVFPLAPSSKSTSGGTAALGCLVKDYFPEPVTVSWNSGALTSGVHTFPAVLQSSGLYSLSSVVTVPSSSLGTQTYICNVNHKPSNTKVDKKVEPKSCGGGSGGGEVKLQESGPGLVAPSQSLSVTCTVSGVSLPDYGVSWIRQPPRKGLEWLGVIWGSETTYYNSALKSRLTIIKDNSKSQVFLKMNSLQTDDTAIYYCAKHYYYGGSYAMDYWGQGTSVTVSSGGGGSGGGGSGGGGSDIQMTQTTSSLSASLGDRVTISCRASQDISKYLNWYQQKPDATVKLLIYHTSRLHSGVPSRFSGSGSGTDYSLTISNLEQEDIATYFCQQGNTLPYTFGGGTKLEIT
light: DIQLTQPNSVSTSLGSTVKLSCTLSSGNIENNYVHWYQLYEGRSPTTMIYDDDKRPDAVPDRFSGSIDRSSNSAFLTIHNVAIEDEAIYFCHSYVSSFNVFGGGTKLTVLRQPKAAPSVTLFPPSSEELQANKATLVCLISDFYPGAVTVAWKADSSPVKAGVETTTPSKQSNNKYAASSYLSLTPEQWKSHRSYSCQVTHEGSTVEKTVAPTECS
notes: also called CTA03Fab(VLG58A)/CTAT02scFv(VLG42A)
B5: binds (CD19 [2]).

B6: CTA03-02Fab/CTAT02-02scFv (bispecific antibody)
heavy: EVQLLESGGGLVQPGGSLRLSCAASGFTFSSFPMAWVRQAPGKGLEWVSTISTSGGRTYYRDSVKGRFTISRDNSKNTLYLQMNSLRAEDTAVYYCAKFRQYSGGFDYWGQGTLVTVSSASTKGPSVFPLAPSSKSTSGGTAALGCLVKDYFPEPVTVSWNSGALTSGVHTFPAVLQSSGLYSLSSVVTVPSSSLGTQTYICNVNHKPSNTKVDKKVEPKSCGGGSGGGEVKLQESGPGLVAPSQSLSVTCTVSGVSLPDYGVSWIRQPPRKGLEWLGVIWGSETTYYNSALKSRLTIIKDNSKSQVFLKMNSLQTDDTAIYYCAKHYYYGGSYAMDYWGQGTSVTVSSGGGGSGGGGSGGGGSDIQMTQTTSSLSASLGDRVTISCRASQDISKYLNWYQQKPEGTVKLLIYHTSRLHSGVPSRFSGSGSGTDYSLTISNLEQEDIATYFCQQGNTLPYTFGGGTKLEIT
light: DIQLTQPNSVSTSLGSTVKLSCTLSSGNIENNYVHWYQLYEGRSPTTMIYDDDKRPEGVPDRFSGSIDRSSNSAFLTIHNVAIEDEAIYFCHSYVSSFNVFGGGTKLTVLRQPKAAPSVTLFPPSSEELQANKATLVCLISDFYPGAVTVAWKADSSPVKAGVETTTPSKQSNNKYAASSYLSLTPEQWKSHRSYSCQVTHEGSTVEKTVAPTECS
notes: also called CTA03Fab(VLD57E)/CTAT02scFv(VLD41E)
With B6 the binding result (CD19 [2]) was “binds” and the “EC50 (read off the curve)” value (CD3) was ~0.2 µg/mL.

B7: CTA03-02Fab/CTAT02-01scFv (bispecific antibody)
heavy: EVQLLESGGGLVQPGGSLRLSCAASGFTFSSFPMAWVRQAPGKGLEWVSTISTSGGRTYYRDSVKGRFTISRDNSKNTLYLQMNSLRAEDTAVYYCAKFRQYSGGFDYWGQGTLVTVSSASTKGPSVFPLAPSSKSTSGGTAALGCLVKDYFPEPVTVSWNSGALTSGVHTFPAVLQSSGLYSLSSVVTVPSSSLGTQTYICNVNHKPSNTKVDKKVEPKSCGGGSGGGEVKLQESGPGLVAPSQSLSVTCTVSGVSLPDYGVSWIRQPPRKGLEWLGVIWGSETTYYNSALKSRLTIIKDNSKSQVFLKMNSLQTDDTAIYYCAKHYYYGGSYAMDYWGQGTSVTVSSGGGGSGGGGSGGGGSDIQMTQTTSSLSASLGDRVTISCRASQDISKYLNWYQQKPDATVKLLIYHTSRLHSGVPSRFSGSGSGTDYSLTISNLEQEDIATYFCQQGNTLPYTFGGGTKLEIT
light: DIQLTQPNSVSTSLGSTVKLSCTLSSGNIENNYVHWYQLYEGRSPTTMIYDDDKRPEGVPDRFSGSIDRSSNSAFLTIHNVAIEDEAIYFCHSYVSSFNVFGGGTKLTVLRQPKAAPSVTLFPPSSEELQANKATLVCLISDFYPGAVTVAWKADSSPVKAGVETTTPSKQSNNKYAASSYLSLTPEQWKSHRSYSCQVTHEGSTVEKTVAPTECS
notes: also called CTA03Fab(VLD57E)/CTAT02scFv(VLG42A)
B7: binds (CD19 [2]).
